We go through six molecules from US20230050972A1 (MOMENTA PHARMACEUTICALS, published 2023).

The target of test [1] is T1, recombinant human α11β1 (human, UniProt Q9UKX5 23-1141; P05556 21-728).
T1 construct: Coated in ELISA; ELISA and SPR material treated as one molecule; also called HIS-tagged human α11β1; integrin alpha 11 beta 1
As to the kind of experiment: ELISA on recombinant human α11β1. The protocol: (§1) 0.25 μg/mL of target antigen (recombinant human or mouse α11β1) was plated in a 96-well plate over night at 4° C. Plates were washed (PBS with 0.1% Tween-20), blocked (PBS with 2% BSA and 0.05% Tween-20) for 1 hour at room temperature and incubated with a range of antibody concentrations for 1 hour at room temperature. Subsequently, plates were washed and incubated with biotinylated anti-rabbit/mouse/human IgG in a 1:1000 dilution buffer and incubated for 1 hour at room temperature. After washing the plates, Streptavidin HRP was added at 1:200 in dilution buffer and incubated for 1 hour at room temperature. Ultra TMB ELISA substrate solution was added and the plates incubated for 5 minutes on a plate shaker. The reaction was stopped by adding stop solution to each well and plates were read at 450 nm.
Background: ELISA stands for enzyme-linked immunosorbent assay.

In test [2] the target is T2, in-house generated I domain of α11β1 (human, UniProt Q9UKX5 159-349, limits assumed).
T2 construct: domain: I domain; also called human α11β1 I domain; α11β1 I Domain
T2 sequence (looked up): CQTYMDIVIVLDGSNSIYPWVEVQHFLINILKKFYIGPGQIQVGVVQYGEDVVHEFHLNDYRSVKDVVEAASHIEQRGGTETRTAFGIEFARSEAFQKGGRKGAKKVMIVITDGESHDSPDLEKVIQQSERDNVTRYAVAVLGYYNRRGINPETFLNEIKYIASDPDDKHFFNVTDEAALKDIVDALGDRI
The test is described as follows: binding to isolated I domain.

Test [3] addresses T3, recombinant mouse α11β1 (mouse, UniProt P61622 23-1141; P09055 21-728, limits assumed).
T3 construct: also called murine α11β1
The test is described as follows: ELISA on recombinant mouse α11β1. The procedure: as §1

In test [4] the target is T4, α11β1 on human myofibroblasts (MF) (human, UniProt Q9UKX5 23-1188; P05556 21-798).
T4 construct: whole, on cells
The test is described as follows: FACS on human myofibroblasts. The protocol: Human Pulmonary Fibroblasts (ScienCell) were cultured in complete Fibroblast Growth Medium (ScienCell) until 80% confluent in T-150 flasks. Cells were washed and harvested using Accutase. Cells were seeded into T-150 flasks at 7,500 cells/cm² in complete FGF and cultured for 72 hours. Cells were then washed and starved in serum reduced medium for 24 hours. After starvation, cells were treated with TGFβ-1 (R&D Systems) for 72 hours. Cells were harvested using Accutase and seeded in 96-well conical bottom plates. Cells were blocked with Heat Inactived Fetal Bovine Serum (Gibco) for 30 minutes at 4° C. Cells were then incubated with anti-α11 antibodies at the doses described in each figure for 30 minutes at 4° C. A human anti-α11 antibody (Creative BioLabs) was included as a positive control as well as the appropriate IgG isotype negative controls. Cells were washed twice and incubated with PE conjugated secondary antibodies specific to the IgG class of the anti-α11 antibodies being tested for 30 minutes at 4° C. Cells were washed twice and fixed in 1% PFA for 30 minutes. Cells were acquired on a FACS Verse […]. Data were analyzed by gating on single cells and determining the geometric Mean Fluorescence Intensity (gMFI) in the PE channel for each sample.

T3 sequence (P61622 23-1141 limits assumed, chain 1 of 2): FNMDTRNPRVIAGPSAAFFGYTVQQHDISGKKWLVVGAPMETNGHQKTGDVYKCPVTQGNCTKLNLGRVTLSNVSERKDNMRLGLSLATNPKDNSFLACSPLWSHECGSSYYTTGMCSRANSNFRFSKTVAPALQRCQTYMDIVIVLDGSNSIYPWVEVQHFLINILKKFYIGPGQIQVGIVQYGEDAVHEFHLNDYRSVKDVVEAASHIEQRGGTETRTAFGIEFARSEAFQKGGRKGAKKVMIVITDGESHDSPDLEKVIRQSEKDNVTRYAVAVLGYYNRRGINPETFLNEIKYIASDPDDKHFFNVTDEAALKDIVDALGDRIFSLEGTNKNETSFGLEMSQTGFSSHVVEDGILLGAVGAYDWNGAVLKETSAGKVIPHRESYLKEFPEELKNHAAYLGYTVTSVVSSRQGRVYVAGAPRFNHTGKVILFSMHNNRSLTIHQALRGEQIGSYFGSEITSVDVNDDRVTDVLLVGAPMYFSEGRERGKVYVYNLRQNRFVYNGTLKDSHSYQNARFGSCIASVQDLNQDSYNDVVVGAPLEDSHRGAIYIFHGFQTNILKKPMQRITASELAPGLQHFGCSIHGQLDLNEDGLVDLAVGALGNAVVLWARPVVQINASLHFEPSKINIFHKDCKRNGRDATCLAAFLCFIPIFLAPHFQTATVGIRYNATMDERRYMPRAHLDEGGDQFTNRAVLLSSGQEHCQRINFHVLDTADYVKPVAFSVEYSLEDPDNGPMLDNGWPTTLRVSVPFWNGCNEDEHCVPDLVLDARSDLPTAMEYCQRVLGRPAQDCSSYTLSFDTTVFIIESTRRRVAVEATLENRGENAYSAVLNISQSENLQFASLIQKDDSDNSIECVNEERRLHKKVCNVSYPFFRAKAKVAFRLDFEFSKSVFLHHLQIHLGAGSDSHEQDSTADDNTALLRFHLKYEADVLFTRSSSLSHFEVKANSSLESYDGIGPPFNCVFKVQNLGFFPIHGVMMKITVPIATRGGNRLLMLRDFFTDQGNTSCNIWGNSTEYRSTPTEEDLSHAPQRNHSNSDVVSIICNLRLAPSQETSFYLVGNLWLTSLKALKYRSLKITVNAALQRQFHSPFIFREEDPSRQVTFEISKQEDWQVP
T3 sequence (P09055 21-728 limits assumed, chain 2 of 2): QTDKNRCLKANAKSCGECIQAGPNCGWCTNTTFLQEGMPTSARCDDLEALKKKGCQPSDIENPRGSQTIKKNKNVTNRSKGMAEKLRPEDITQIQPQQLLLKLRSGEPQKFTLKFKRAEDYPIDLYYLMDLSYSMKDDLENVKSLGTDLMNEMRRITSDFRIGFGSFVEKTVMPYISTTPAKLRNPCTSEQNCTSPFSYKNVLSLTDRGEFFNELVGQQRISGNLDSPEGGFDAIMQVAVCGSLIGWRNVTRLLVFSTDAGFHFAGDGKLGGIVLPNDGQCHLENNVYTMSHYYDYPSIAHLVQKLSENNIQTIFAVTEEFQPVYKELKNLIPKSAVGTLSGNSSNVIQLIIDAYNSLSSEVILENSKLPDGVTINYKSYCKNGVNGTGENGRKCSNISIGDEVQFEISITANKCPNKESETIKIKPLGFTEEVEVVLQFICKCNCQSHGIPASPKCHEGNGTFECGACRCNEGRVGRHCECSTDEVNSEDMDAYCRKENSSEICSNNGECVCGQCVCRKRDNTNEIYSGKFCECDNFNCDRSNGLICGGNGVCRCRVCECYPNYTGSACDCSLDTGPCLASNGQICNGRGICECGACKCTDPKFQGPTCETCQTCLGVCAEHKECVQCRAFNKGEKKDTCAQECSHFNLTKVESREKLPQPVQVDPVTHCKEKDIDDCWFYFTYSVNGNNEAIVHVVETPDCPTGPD
T1 sequence (Q9UKX5 23-1141 limits assumed, chain 1 of 2): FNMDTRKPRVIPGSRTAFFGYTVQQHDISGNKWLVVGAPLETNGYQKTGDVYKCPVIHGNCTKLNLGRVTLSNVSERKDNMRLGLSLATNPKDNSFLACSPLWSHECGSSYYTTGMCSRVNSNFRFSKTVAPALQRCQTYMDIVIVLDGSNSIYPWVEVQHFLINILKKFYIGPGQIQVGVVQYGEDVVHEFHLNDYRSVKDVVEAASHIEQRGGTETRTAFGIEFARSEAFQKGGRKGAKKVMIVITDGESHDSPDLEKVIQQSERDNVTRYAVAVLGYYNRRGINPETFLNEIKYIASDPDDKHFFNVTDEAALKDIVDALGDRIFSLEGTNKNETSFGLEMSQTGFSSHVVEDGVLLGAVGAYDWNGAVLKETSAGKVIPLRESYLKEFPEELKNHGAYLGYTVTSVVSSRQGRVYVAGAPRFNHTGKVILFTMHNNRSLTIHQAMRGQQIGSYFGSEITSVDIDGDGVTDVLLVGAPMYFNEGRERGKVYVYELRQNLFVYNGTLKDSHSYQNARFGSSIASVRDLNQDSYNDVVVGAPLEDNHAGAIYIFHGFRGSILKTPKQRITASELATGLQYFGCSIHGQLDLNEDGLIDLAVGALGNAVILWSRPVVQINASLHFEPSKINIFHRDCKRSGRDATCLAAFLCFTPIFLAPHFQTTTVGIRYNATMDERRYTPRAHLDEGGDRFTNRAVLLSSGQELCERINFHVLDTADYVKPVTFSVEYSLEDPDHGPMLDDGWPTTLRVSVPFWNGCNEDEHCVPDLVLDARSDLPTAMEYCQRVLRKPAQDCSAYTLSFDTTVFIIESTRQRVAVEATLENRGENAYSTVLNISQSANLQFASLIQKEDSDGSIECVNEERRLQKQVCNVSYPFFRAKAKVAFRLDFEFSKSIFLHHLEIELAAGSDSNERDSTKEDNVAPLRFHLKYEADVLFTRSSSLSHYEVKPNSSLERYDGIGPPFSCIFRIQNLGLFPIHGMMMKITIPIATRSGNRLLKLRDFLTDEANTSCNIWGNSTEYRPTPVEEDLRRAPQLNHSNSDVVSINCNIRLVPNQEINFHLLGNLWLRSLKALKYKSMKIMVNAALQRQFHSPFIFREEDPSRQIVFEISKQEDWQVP
T1 sequence (P05556 21-728 limits assumed, chain 2 of 2): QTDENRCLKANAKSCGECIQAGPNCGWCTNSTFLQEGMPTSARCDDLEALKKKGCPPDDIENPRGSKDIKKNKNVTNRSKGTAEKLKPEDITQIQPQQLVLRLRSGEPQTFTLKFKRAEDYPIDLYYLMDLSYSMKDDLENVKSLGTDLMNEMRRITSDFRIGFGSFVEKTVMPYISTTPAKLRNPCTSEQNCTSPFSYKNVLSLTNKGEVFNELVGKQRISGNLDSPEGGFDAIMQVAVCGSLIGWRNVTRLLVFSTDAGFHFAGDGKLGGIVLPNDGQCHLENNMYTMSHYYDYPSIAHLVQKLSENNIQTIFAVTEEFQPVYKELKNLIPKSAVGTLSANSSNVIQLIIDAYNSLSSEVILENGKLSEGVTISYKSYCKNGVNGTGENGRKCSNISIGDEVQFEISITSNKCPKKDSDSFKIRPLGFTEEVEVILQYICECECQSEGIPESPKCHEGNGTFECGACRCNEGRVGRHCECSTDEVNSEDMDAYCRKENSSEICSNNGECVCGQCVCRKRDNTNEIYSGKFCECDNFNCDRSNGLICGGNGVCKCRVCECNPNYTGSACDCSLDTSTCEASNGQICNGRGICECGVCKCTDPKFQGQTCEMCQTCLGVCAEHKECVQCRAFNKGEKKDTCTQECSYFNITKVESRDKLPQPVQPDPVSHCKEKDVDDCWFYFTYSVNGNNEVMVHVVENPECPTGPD

B1: 10-K10 (antibody, V domains shown)
VH: EVQLQQSGPELVKPGASVKMSCKASGYTITDYYMMWLKQSHGKSLEWIGDINPYTGGTSYNQKFKGKATLTVDKSSSTAYMQLNSLTSEDSAVYYCARGAYWGQGTTLTVSS
VL: not shown
notes: mouse hybridoma IgG
B1: the binding result is “binds” in test [1], “no binding” in test [2], “binds” in test [3] and “binds” in test [4].

B2: A11B1_4E1 (antibody, V domains shown)
VH: QSLEESGGDLVKPGTSLTLSCTASGFSFGSYYYMCWVRQAPGKGLEWIACIDVGSSGDTYYASWVNGRFTISKTSSTTVTLQMTSLTAADTATYFCARDDTAAGGFGNLELWGPGTLVTVSS
VL: AFELTQTPSSVSEPVGGTVTIKCQASQSIYSYFSWYQQKPGQPPKRLIYQASTLASGVPSRFKGSGSGTDFTLTISDLECADAATYYCQNNYGRGSGSYFFGFGGGTEVVVKG
notes: recombinant rabbit IgG, full chains
With B2, the binding result in test [1] is given as “binds”; in test [2], “no binding”; in test [3] it was “no binding”; in test [4] it was “binds”.

B3: A11B1_6F9 (antibody, V domains shown)
VH: QSLEESGGDLVKPGASLTLTCTASGSSFSSTYWNCWVRQAPGKGLEWIACINAGSGTTYYASWAKGRFTVSKTSSTTVTLQMTSLTAADTATYFCTRDSDGRFSSGYYFNLWGPGTLVTVSS
VL: AQVLTQTASPVSAAVGGTVTINCQSSQSVYDNNWLAWYQQKPGQPPKLLIDDASKLTSGVSSRFKGSGSGTQFTLTISGVQCDDAATYYCQGAYYSSGWYWAFGGGTEVVVKG
notes: as for B2
Regarding B3, the binding result in test [1] is “binds”; in test [2] it was “no binding”; in test [3], “no binding”; in test [4] it was “binds”.

B4: A11B1_5D7 (antibody, V domains shown)
VH: QEQLVESGGGLVQPEGSLTLTCKASGFDFSSNAMCWVRQAPGKGLEWIACIYNGDGSTYYASWVNGRFTISKTSSTTVTLQMTSLTAADTATYFCARGLSNWNRDNLWGPGTLVTVSS
VL: AQVLTQTPSSVSAAVGGTATINCQASQSLYSPKNLAWYQQTPGQPPKLLIYSASKLASGVPSRFKGSGSGTQFTLTISGVQCDDAAIYYCQGEFSCTTAACFAFGGGTEVVVKG
notes: as for B2
For B4, the binding result is reported as “binds” in test [1], “no binding” in test [2], “no binding” in test [3] and “binds” in test [4].

B5: A11B1_6C7 (antibody, V domains shown)
VH: QQQLEESGGGLVKPGGTLTLTCKASGIDFSSYYYMCWVRQAPGKGLELIVCIYTSSGGTWYASWVNGRLTISRSTSLNTVDLKMTSLTAADTATYFCARGVYSGSSDYPTRLDLWGQGTLVTVSL
VL: AIEMTQSPPSLSASVGETVRIRCLASEDIYSGISWYQQKPEKPPTLLISGASNLESGVPPRFSGGGSGTDYTLTIGGVQAEDVATYYCLGGYSFSSTGLTFGAGTKVEIKR
notes: as for B2
Regarding B5, the binding result in test [1] is “binds”; in test [2], “no binding”; in test [3], “no binding”; in test [4], “binds”.

B6: A11B1_6G4 (antibody, V domains shown)
VH: QQQLEESGGGLVKPGGTLTLTCKASGVALNPYYYMCWVRQAPGKGLEWIACVDADSSGSTYYASWAKGRFTISKTSSTTVTLKMTSLTAADTATYFCARESVDYSSVGIGYVHGTDGLWGPGTLVTVSS
VL: DIVVTQTPSSVSAAVGGTVTIKCQASQSISNYFSWYQQKPGQPPKLLIYRASTLASGVPSRFKGSGSGTEFTLTISDLECADAATYYCQCTYGRSNSNFFYGFGGGTEVVVKG
notes: as for B2
For the molecule B6, the binding result in test [1] is “binds”; in test [2], “no binding”; in test [3] it was “no binding”; in test [4], “binds”.
